Results as given in article PMC4039143, “Polyubiquitylation of AMF requires cooperation between the gp78 and TRIM25 ubiquitin ligases” (Oncotarget, 2013).

Biological target: T1, His-tagged AMF expressed in and purified from E. coli (human, UniProt P06744 1-558)
T1 construct: autocrine motility factor (AMF) / phosphoglucose isomerase (PGI); the E. coli expression construct is not described; also called his-AMF; PGI; source: E. coli (BL21), purified (Ni-NTA agarose, PD-10 desalting); not shown: His, N-terminal, kept
Experiment: pull-down; GST fusions held on glutathione-agarose and washed; incubated with purified his-AMF or TRIM25 in buffer D (50 mM Tris/HCl pH 7.5, 100 mM NaCl, 1 mM DTT, 0.1% Tween20), 3 hr at 4 °C; retained protein detected by immunoblot
Settings: both partners purified

B1: GST fusion bearing the entire C-terminal (cytoplasmic) domain of gp78 (domain or fragment, human, UniProt Q9UKV5 309-643, looked up)
chain: IRRHKNYLRVVGNMEARFAVATPEELAVNNDDCAICWDSMQAARKLPCGHLFHNSCLRSWLEQDTSCPTCRMSLNIADNNRVREEHQGENLDENLVPVAAAEGRPRLNQHNHFFHFDGSRIASWLPSFSVEVMHTTNILGITQASNSQLNAMAHQIQEMFPQVPYHLVLQDLQLTRSVEITTDNILEGRIQVPFPTQRSDSIRPALNSPVERPSSDQEEGETSAQTERVPLDLSPRLEETLDFGEVEVEPSEVEDFEARGSRFSKSADERQRMLVQRKDELLQQARKRFLNKSSEDDAASESFLPSEGASSDPVTLRRRMLAAAAERRLQKQQTS
notes: Expression vector provided by A Weissman; also called GST-gp78C; gp78C; source: E. coli (BL21), lysate applied to glutathione-agarose and washed; also purified on glutathione-agarose
B1: binds.
